According to the supplement of paper PMC9170038:

Tests used:
MS2 coat protein [1] = experiment: apparent KD of MS2 coat protein; higher = weaker reporter binding; conditions: Eterna round: R101
Experimental: (§1)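 RNA-MaP: designed FMN/MS2 RNA switches (84 nt design region) are transcribed on-chip within common flanks and titrated with SNAP-549-labelled MS2 coat protein (about 1-3000 nM) in 100 mM Tris pH 7.5, 80 mM KCl, 4 mM MgCl2, without or with 200 uM FMN. Median apparent KD per design; activation ratio = KD,OFF / KD,ON.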

MS2 coat protein [2] = experiment: apparent KD of MS2 coat protein; designed switch direction (-1 OFF switch, 1 ON switch): 1; higher = weaker reporter binding; conditions: Eterna round: R98
Experimental: as §1

“CAGUCGACCAUAACAAGGUCGACUGACUUCUGAGGAUCACCCAGAAGGCGUCACCUAAUAGGUGACGAGGAUAUGGAGUGAAAA [#SharedSequence IExNG# - 6] (puzzle (switch architecture): Inverted Exclusion NG 3)” was tested, and the “apparent KD of MS2 coat protein” value (MS2 coat protein [1]; input ligand: FMN 200 uM) was 75 nM and the “apparent KD of MS2 coat protein” value (MS2 coat protein [1]; input ligand: none) was 95 nM.
“GGUCGACUUCAAGGAUAUGGACUGCAAAGCAGUCCAGAAGGUGAGGAUCACCCACCUACGGUCAGGAAACUGACCGAUCGACCA [#SharedSequence - ExNG1-4] (puzzle (switch architecture): Exclusion NG 1)” was tested, and the “apparent KD of MS2 coat protein” value (MS2 coat protein [1]; input ligand: FMN 200 uM) was 12.3 nM and the “apparent KD of MS2 coat protein” value (MS2 coat protein [1]; input ligand: none) was 10.5 nM.
With “GCCAUCGCAUGAGGAUAUGCUCCGGUUUCCGGAGCAGAAGGCAUGUCAUAAGACAUGAGGAUCACCCAUGUAGUUAAGAUGGCA [#HiddenHairpinInALoop - jl-sng1-2.00 jl mod - Original] (puzzle (switch architecture): Same State NG 1)” the “apparent KD of MS2 coat protein” value (MS2 coat protein [1]; input ligand: FMN 200 uM) was 10.6 nM and the “apparent KD of MS2 coat protein” value (MS2 coat protein [1]; input ligand: none) was 283 nM.
With “GUAGCAUUGAGAGGAUAUCCAUACCGGAAACGGACAUGAGGAUCACCCAUGUGGCGAAAGCCUUGGGAGAAGGCUCUAUGCUAC [S-state NG2 01] (puzzle (switch architecture): Same State NG 2)” the “apparent KD of MS2 coat protein” value (MS2 coat protein [1]; input ligand: none) was 4.34 nM.
For “UAAAUAGAUCCUAGAGGAUCACCCUAGGAUAUCACCGUCGAGGUGCCAUAAUGGCACCUCGACGGUGAGAAGGAGGUUGAUAAA [#SharedSequence - SLExNG3: 7] (puzzle (switch architecture): Small Loop Exclusion NG 3)”, the “apparent KD of MS2 coat protein” value (MS2 coat protein [1]; input ligand: FMN 200 uM) was 19.9 nM and the “apparent KD of MS2 coat protein” value (MS2 coat protein [1]; input ligand: none) was 11.4 nM.
With “AAAUGAUAUCAGAAGGGCUCCAGCAAAGCUGGAGCAGGAUAUGAGGAUCACCCAUGUCACCUGACGGUCGAAACGACCGUCAGG [#SharedSequence - IExNG1: 7-3] (puzzle (switch architecture): Inverted Exclusion NG 1)” the “apparent KD of MS2 coat protein” value (MS2 coat protein [1]; input ligand: FMN 200 uM) was 205 nM and the “apparent KD of MS2 coat protein” value (MS2 coat protein [1]; input ligand: none) was 26.6 nM.
For “UAAAUAAAUCCUAGAGGAUCACCCUAGGAUAUCACCGUCGAGGUGCCAUAAUGGCACCUCGACGGUGAGAAGGAGGGAAAUAAA [#SharedSequence - SLExNG3: 3] (puzzle (switch architecture): Small Loop Exclusion NG 3)”, the “apparent KD of MS2 coat protein” value (MS2 coat protein [1]; input ligand: FMN 200 uM) was 11.6 nM and the “apparent KD of MS2 coat protein” value (MS2 coat protein [1]; input ligand: none) was 9.97 nM.
“CCGAAUGUCACAGGAUAUGGUCCGGGCACGCGACCAGAAGGGUGAUCUCACAUGAGGAUCACCCAUGUGUAGGCGUUAGACUAC [Dierata]” was tested, and the “apparent KD of MS2 coat protein” value (MS2 coat protein [2]; input ligand: FMN 200 uM) was 191 nM and the “apparent KD of MS2 coat protein” value (MS2 coat protein [2]; input ligand: none) was 96.6 nM.
In the case of “GUAACAUGAGGAUCACCCAUGUCGUGCUAGAUGAGUUCUGGUGAGGAUAUACAUGGUAAAUAACUGUAGAAGGCACUGGGUACA [SameState #67 NG3]”, the “apparent KD of MS2 coat protein” value (MS2 coat protein [2]; input ligand: FMN 200 uM) is reported as 44.7 nM and the “apparent KD of MS2 coat protein” value (MS2 coat protein [2]; input ligand: none) is reported as 133 nM.
For “GGGUGGGUCACAGGAUAUCCCGUGAGCCACAUGAGGAUCACCCAUGUAUCACGACGAAAGAAGAAGGAGAAGGGUGACCCUGAU [Tibiiste]”, the “apparent KD of MS2 coat protein” value (MS2 coat protein [2]; input ligand: FMN 200 uM) was 29.8 nM and the “apparent KD of MS2 coat protein” value (MS2 coat protein [2]; input ligand: none) was 40.7 nM.
In the case of “AAACUUAUCACAGGAUAUUCCUGAGGAUGCCAGGGAGAAGGGUGACUCUUGGGACAUGAGGAUCACCCAUGUUCUGUGGGAAAA [Xeusdior]”, the “apparent KD of MS2 coat protein” value (MS2 coat protein [2]; input ligand: FMN 200 uM) is reported as 190 nM and the “apparent KD of MS2 coat protein” value (MS2 coat protein [2]; input ligand: none) is reported as 182 nM.
With “UAUUUAUGGUGAGGAUAUGCAAAGGAUCACCUUGUAGAAGGCAUCAGGUAGAAGGUGCAGAGGAUCACCCUGUAAGGAUAUAUC [pwkr2 ssNG1 DX.22]” the “apparent KD of MS2 coat protein” value (MS2 coat protein [2]; input ligand: FMN 200 uM) was 66.1 nM and the “apparent KD of MS2 coat protein” value (MS2 coat protein [2]; input ligand: none) was 232 nM.
For “CACGUCCUCACAGGAUAUGCUGGACUUUGUCCAGCAGAAGGGUGAAACAUGAGGAUCACCCAUGUAAGGACGUGUAUAUUUAAU [Denovo 21]”, the “apparent KD of MS2 coat protein” value (MS2 coat protein [2]; input ligand: FMN 200 uM) was 1470 nM and the “apparent KD of MS2 coat protein” value (MS2 coat protein [2]; input ligand: none) was 187 nM.
In the case of “ACGUUAAUUCGAGGAUAUCGGUGAUUUAUAUUACGAGAAGGCGAUAAUUGUGAACAACUUAUAGACAUGAGGAUCACCCAUGUA [JR_SSNG1_Sub065]”, the “apparent KD of MS2 coat protein” value (MS2 coat protein [2]; input ligand: FMN 200 uM) is reported as 21.3 nM and the “apparent KD of MS2 coat protein” value (MS2 coat protein [2]; input ligand: none) is reported as 28.6 nM.
In the case of “UCACUCACGUUAGGAUAUGGAUCGGAAAACGAUCCAGAAGGAACCUGCAAACCUGAGGAACACCCAGGUUCCAAUAACGAGUGA [SameSame 8 - Jieux - Same State NG 1]”, the “apparent KD of MS2 coat protein” value (MS2 coat protein [2]; input ligand: FMN 200 uM) is reported as 745 nM and the “apparent KD of MS2 coat protein” value (MS2 coat protein [2]; input ligand: none) is reported as 839 nM.
